This is an account of results in article PMC3558487.

For assay [1], the target named is Vibrio harveyi chitoporin (VhChiP), recombinant, mature trimer (Vibrio harveyi type strain 650). Description: SDS-PAGE of samples unheated or heated at up to 60°C; purified VhChiP (peak P2 of the ion exchange) unheated or heat-treated for 10 min, run on a 10% polyacrylamide gel; trimer to monomers.
The target is the same in assay [2]. As to the kind of experiment: single-channel current recording in a planar lipid bilayer (BLM); purified VhChiP added to the cis side of a DPhPC bilayer, 1 M KCl, 20 mM HEPES pH 7.5; closure induced by higher voltage (+200 mV).

What is called stoichiometry N is a count of units in the complex or per binding partner. As for “Vibrio harveyi chitoporin (VhChiP), recombinant, mature trimer (natural protein)”, the stoichiometry N in assay [1] and in assay [2] was 3 each time.
